Target: T1, SOS1 (Salt Overly Sensitive 1, plasma membrane Na+/H+ antiporter), Q9LKW9
T1 chain: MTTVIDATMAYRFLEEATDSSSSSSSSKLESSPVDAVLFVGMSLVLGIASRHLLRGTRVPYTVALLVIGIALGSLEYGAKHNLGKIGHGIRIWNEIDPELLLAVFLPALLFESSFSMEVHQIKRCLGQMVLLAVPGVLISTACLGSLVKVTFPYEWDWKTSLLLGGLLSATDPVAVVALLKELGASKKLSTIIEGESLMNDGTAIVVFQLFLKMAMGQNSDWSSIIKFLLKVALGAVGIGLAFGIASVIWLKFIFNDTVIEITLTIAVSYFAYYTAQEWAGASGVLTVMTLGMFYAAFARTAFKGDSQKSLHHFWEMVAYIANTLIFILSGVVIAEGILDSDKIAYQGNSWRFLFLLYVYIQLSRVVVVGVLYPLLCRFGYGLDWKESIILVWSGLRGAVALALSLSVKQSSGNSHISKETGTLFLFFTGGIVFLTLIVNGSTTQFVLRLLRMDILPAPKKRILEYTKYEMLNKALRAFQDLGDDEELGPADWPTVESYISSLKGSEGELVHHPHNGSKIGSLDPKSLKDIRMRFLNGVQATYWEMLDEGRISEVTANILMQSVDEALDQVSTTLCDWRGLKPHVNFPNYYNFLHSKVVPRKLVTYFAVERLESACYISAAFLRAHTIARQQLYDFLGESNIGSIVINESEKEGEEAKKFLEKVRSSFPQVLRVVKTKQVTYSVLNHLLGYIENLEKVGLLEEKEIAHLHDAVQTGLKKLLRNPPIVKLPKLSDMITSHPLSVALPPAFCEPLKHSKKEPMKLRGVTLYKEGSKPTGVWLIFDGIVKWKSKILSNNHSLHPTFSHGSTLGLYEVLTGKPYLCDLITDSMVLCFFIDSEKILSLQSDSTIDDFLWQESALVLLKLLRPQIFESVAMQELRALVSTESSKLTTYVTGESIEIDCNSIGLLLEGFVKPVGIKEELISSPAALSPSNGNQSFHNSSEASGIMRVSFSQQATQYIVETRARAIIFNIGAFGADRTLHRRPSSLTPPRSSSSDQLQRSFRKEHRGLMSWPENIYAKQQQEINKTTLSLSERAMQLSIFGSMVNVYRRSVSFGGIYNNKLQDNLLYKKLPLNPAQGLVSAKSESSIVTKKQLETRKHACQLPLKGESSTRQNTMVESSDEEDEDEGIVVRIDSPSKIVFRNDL

B1: T/DSOS2 (SOS2 protein kinase with the Thr168-to-Asp change in the activation loop) (protein)
chain: MTKKMRRVGKYEVGRTIGEGTFAKVKFARNTDTGDNVAIKIMAKSTILKNRMVDQIKREISIMKIVRHPNIVRLYEVLASPSKIYIVLEFVTGGELFDRIVHKGRLEESESRKYFQQLVDAVAHCHCKGVYHRDLKPENLLLDTNGNLKVSDFGLSALPQEGVELLRDTCGTPNYVAPEVLSGQGYDGSAADIWSCGVILFVILAGYLPFSETDLPGLYRKINAAEFSCPPWFSAEVKFLIHRILDPNPKTRIQIQGIKKDPWFRLNYVPIRAREEEEVNLDDIRAVFDGIEGSYVAENVERNDEGPLMMNAFEMITLSQGLNLSALFDRRQDFVKRQTRFVSRREPSEIIANIEAVANSMGFKSHTRNFKTRLEGLSSIKAGQLAVVIEIYEVAPSLFMVDVRKAAGETLEYHKFYKKLCSKLENIIWRATEGIPKSEILRTITF
B1 was tested, and the “plasma membrane Na+/H+-exchange activity, maximum stimulation relative to activity without added protein (100 mM NaCl)” value was “A maximum stimulation of activity of 40% relative to activity without added protein”.

— patent US20060168698
